Key:
Assay in all cases: EMSA
[1] = test system: Protamine 1 (WT P1) (Mus musculus (C57BL/6N background))
[2] = test system: Protamine 1 K49A (Mus musculus (C57BL/6N, P1 K49A/K49A knock-in))
[3] = test system: Protamine 2 precursor (pro P2) (Mus musculus (C57BL/6N, P1 K49A/K49A knock-in))
[4] = test system: Protamine 2, mature (WT P2) (Mus musculus (C57BL/6N background))

With ~300 bp linear DNA (280 bp PCR product) the Kd [1] was 680 nM, the Kd [2] was 950 nM and the Kd [3] was 840 nM. The Kd [4] was 670 nM.

— paper doi:10.1101/2021.09.16.460631
